This note sets out measurements from article PMC8682488, “c-di-GMP Homeostasis Is Critical for Heterocyst Development in Anabaena sp. PCC 7120” (Frontiers in Microbiology, 2021).

The target of one series is T1, CdgS (Nostoc sp. PCC 7120 = FACHB-418, UniProt A0ACD7RTW6).
T1 construct: gene all2874; N-terminal REC and C-terminal GGDEF domain, two C-terminal Strep-tags (pHTwinStrep), E. coli BL21(DE3), Strep-Tactin purified
T1 sequence (A0ACD7RTW6 1-330): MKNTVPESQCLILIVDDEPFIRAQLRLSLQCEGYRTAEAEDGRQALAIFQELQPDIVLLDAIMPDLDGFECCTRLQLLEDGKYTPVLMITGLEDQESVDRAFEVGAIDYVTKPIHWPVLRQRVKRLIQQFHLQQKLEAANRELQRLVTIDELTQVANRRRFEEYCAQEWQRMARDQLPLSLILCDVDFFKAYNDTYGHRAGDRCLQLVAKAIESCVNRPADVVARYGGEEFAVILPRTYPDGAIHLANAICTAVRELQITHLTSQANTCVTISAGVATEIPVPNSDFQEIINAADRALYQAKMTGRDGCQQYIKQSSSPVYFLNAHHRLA
Description: HPLC, diguanylate cyclase product formation. Particulars: DGC activity (GTP to c-di-GMP); 50 μM GTP, 2 μM protein, pH 8.0, 10 mM MgCl2, 25 °C, 30 min. The format is biochemical.

Substrate in series [1]: Nc1nc2c(ncn2[C@@H]2O[C@H](COP(=O)(O)OP(=O)(O)OP(=O)(O)O)[C@@H](O)[C@H]2O)c(=O)[nH]1
In words: HPLC, diguanylate cyclase steady-state kinetics. The format is biochemical, Nostoc sp. PCC 7120 = FACHB-418. The settings on record: DGC activity (GTP to c-di-GMP), GGDEF domain, 50 mM Tris-HCl pH 8.0, 10 mM MgCl2, 0.5 mM EDTA, 300 mM NaCl, 25 °C. The text has this:
HPLC, diguanylate cyclase steady-state kinetics on CdgSH

Substrate in series [2]: Nc1nc2c(ncn2[C@@H]2O[C@@H]3CO[P@](=O)(O)O[C@H]4[C@@H](O)[C@H](n5cnc6c(=O)[nH]c(N)nc65)O[C@@H]4CO[P@](=O)(O)O[C@H]3[C@H]2O)c(=O)[nH]1
Description: HPLC, c-di-GMP phosphodiesterase steady-state kinetics. The format is biochemical, Nostoc sp. PCC 7120 = FACHB-418. The settings on record: PDE activity (c-di-GMP to pGpG), EAL domain, 50 mM Tris-HCl pH 8.0, 10 mM MgCl2, 0.5 mM EDTA, 300 mM NaCl, 25 °C. The text has this: HPLC, c-di-GMP phosphodiesterase steady-state kinetics on CdgSH

Consider `Nc1nc2c(ncn2[C@@H]2O[C@H](COP(=O)(O)OP(=O)(O)OP(=O)(O)O)[C@@H](O)[C@H]2O)c(=O)[nH]1` [GTP], for which, at CdgS, the “HPLC, diguanylate cyclase product formation” value was “CdgS could convert the substrate GTP to c-di-GMP”.

B1: CdgSH (Nostoc sp. PCC 7120 = FACHB-418) (protein)
chain: MPGNEWEKIRHILVVQDLQGQRTIPLQEATYSIGRHTSNAIVLHSRSVSRQHAILLRVTLPETDQCSFRIIDGNFKGQGSTNGLLVNGTRCFSHNLRHGDVINFGSHQAQAKYYAISNISEKAFFASADVEDLSTFLSELSQPVNPFQTLVVDPEFEGASETALARLASFPELIPNPIIETDLEGRVTYINPAASVKFPDLRELGKQHPILKDILNIAENPKINPFVREVTVGHAVYEQSVHNLPESDLIRTYIIRDVTEQKQAEAELHQRDRLLQAVAEAANWLVVEMNYDTAIEKALAVVGEAAQADRAYLFKNHPHPITGKRAVSLQFEWYGSDLQPSIQDWQNQLYQSTELSRWYSVLSSGKSINELRRKLPVAERELLERQGIQSLLLVPLGLEDQFWGYLGLADCTQERYWSRHEESTLLTMAASISGAWQRQQVEEKIRYQALHDLLTGLPNRLLFNELLAKALANASRSQESLAVMFLDLDRFKVINDTLGHTLGDRLLQSVAQRLRDCLRSGDTVSRWGGDEFTILLPHISYIEEVTQAACRILKALEEVFHLDGHELYVSASLGIALLDHHSPDAEALIKHADAALYHAKDEGRNNYQFYTTSLSGKTPELLTLEKSLRYALEKQELKVYYQPRVNILTGQITGMEALLRWQHPEMGIVAPSIFIPIAEETGLIIPIGEWVLRTACMQNRAWQEAGLPPVQMAVNLSPKQFRQPTLLELVSAILAETGLAPEFLELEITESTAIEDIDFTRSVLENLQQMGVDIAIDDFGTGHSSLSRLQLLPLHNLKIDGSFIKALTTDSKVAHIVKAIVTLGRSLGLRLTAEGVEKQEELDFLKSINCQDVQGFLFHKPLSAEKATEILQGEKKHATL
notes: FHA-PAS-GAF-GGDEF-EAL protein, two C-terminal Strep-tags (pHTwinStrep), E. coli BL21(DE3), Strep-Tactin purified
For B1, the Michaelis constant (Km) (commonly the concentration of substrate that gives half-maximal velocity) in series [1] is 37.2 µM; in series [2] it was 23.5 µM. In addition, the figures for the kcat in series [1] and in series [2] were 0.39 s⁻¹ and 1.26 s⁻¹, respectively.

B2: CdgSH (Nostoc sp. PCC 7120 = FACHB-418; D530A/E531A) (protein)
chain: MPGNEWEKIRHILVVQDLQGQRTIPLQEATYSIGRHTSNAIVLHSRSVSRQHAILLRVTLPETDQCSFRIIDGNFKGQGSTNGLLVNGTRCFSHNLRHGDVINFGSHQAQAKYYAISNISEKAFFASADVEDLSTFLSELSQPVNPFQTLVVDPEFEGASETALARLASFPELIPNPIIETDLEGRVTYINPAASVKFPDLRELGKQHPILKDILNIAENPKINPFVREVTVGHAVYEQSVHNLPESDLIRTYIIRDVTEQKQAEAELHQRDRLLQAVAEAANWLVVEMNYDTAIEKALAVVGEAAQADRAYLFKNHPHPITGKRAVSLQFEWYGSDLQPSIQDWQNQLYQSTELSRWYSVLSSGKSINELRRKLPVAERELLERQGIQSLLLVPLGLEDQFWGYLGLADCTQERYWSRHEESTLLTMAASISGAWQRQQVEEKIRYQALHDLLTGLPNRLLFNELLAKALANASRSQESLAVMFLDLDRFKVINDTLGHTLGDRLLQSVAQRLRDCLRSGDTVSRWGGAAFTILLPHISYIEEVTQAACRILKALEEVFHLDGHELYVSASLGIALLDHHSPDAEALIKHADAALYHAKDEGRNNYQFYTTSLSGKTPELLTLEKSLRYALEKQELKVYYQPRVNILTGQITGMEALLRWQHPEMGIVAPSIFIPIAEETGLIIPIGEWVLRTACMQNRAWQEAGLPPVQMAVNLSPKQFRQPTLLELVSAILAETGLAPEFLELEITESTAIEDIDFTRSVLENLQQMGVDIAIDDFGTGHSSLSRLQLLPLHNLKIDGSFIKALTTDSKVAHIVKAIVTLGRSLGLRLTAEGVEKQEELDFLKSINCQDVQGFLFHKPLSAEKATEILQGEKKHATL
notes: as for B1
Turning to B2, in series [2], the Km amounted to 31.0 µM and the catalytic constant (kcat) (commonly the maximal rate divided by the concentration of active sites) was 1.78 s⁻¹.

B3: CdgSH (Nostoc sp. PCC 7120 = FACHB-418; E656A/L658A) (protein)
chain: MPGNEWEKIRHILVVQDLQGQRTIPLQEATYSIGRHTSNAIVLHSRSVSRQHAILLRVTLPETDQCSFRIIDGNFKGQGSTNGLLVNGTRCFSHNLRHGDVINFGSHQAQAKYYAISNISEKAFFASADVEDLSTFLSELSQPVNPFQTLVVDPEFEGASETALARLASFPELIPNPIIETDLEGRVTYINPAASVKFPDLRELGKQHPILKDILNIAENPKINPFVREVTVGHAVYEQSVHNLPESDLIRTYIIRDVTEQKQAEAELHQRDRLLQAVAEAANWLVVEMNYDTAIEKALAVVGEAAQADRAYLFKNHPHPITGKRAVSLQFEWYGSDLQPSIQDWQNQLYQSTELSRWYSVLSSGKSINELRRKLPVAERELLERQGIQSLLLVPLGLEDQFWGYLGLADCTQERYWSRHEESTLLTMAASISGAWQRQQVEEKIRYQALHDLLTGLPNRLLFNELLAKALANASRSQESLAVMFLDLDRFKVINDTLGHTLGDRLLQSVAQRLRDCLRSGDTVSRWGGDEFTILLPHISYIEEVTQAACRILKALEEVFHLDGHELYVSASLGIALLDHHSPDAEALIKHADAALYHAKDEGRNNYQFYTTSLSGKTPELLTLEKSLRYALEKQELKVYYQPRVNILTGQITGMAAALRWQHPEMGIVAPSIFIPIAEETGLIIPIGEWVLRTACMQNRAWQEAGLPPVQMAVNLSPKQFRQPTLLELVSAILAETGLAPEFLELEITESTAIEDIDFTRSVLENLQQMGVDIAIDDFGTGHSSLSRLQLLPLHNLKIDGSFIKALTTDSKVAHIVKAIVTLGRSLGLRLTAEGVEKQEELDFLKSINCQDVQGFLFHKPLSAEKATEILQGEKKHATL
notes: as for B1
As for B3, in series [1], the Michaelis constant (Km) was 34.8 µM and the kcat was determined as 0.12 s⁻¹.
